In assay [1] the target is hERG ΔPAS-citrine channel (hERG core channel), S620T (human) (UniProt Q12809). The assay is described as follows: FRET or BRET.
The target of assay [2] is hERG F860A core channel (hERG ΔPAS F860A-citrine, S620T) (human) (UniProt Q12809). The assay is described as follows: FRET or BRET. (BRET reads energy transfer from a luciferase to a nearby fluorophore.)

Turning to “hERG PAS domain fused to cyan fluorescent protein (hERG PAS-CFP) (from UniProt Q12809 1-135) (domain or fragment)”, the Ratio A − Ratio A0 (proportional to FRET efficiency) in assay [1] was found to be 0.2. Moreover, the Ratio A – Ratio A0 (proportional to FRET efficiency) in assay [2] turned out to be 0.09.

For the origin of these results see publication PMC6445578.
